Experiments:
muIL-27 = target: T1, muIL-27 (Mus musculus, UniProt O35228+Q8K3I6); assay: Phospho-STAT3 (BIO-PLEX) neutralization of IL-27 by soluble receptors, total human PBMCs; assay type: cell-based; settings: ligand muIL-27 at EC90 (2 nM)
T1 construct: purchased R&D Systems
T1 sequence (Q8K3I6 29-234): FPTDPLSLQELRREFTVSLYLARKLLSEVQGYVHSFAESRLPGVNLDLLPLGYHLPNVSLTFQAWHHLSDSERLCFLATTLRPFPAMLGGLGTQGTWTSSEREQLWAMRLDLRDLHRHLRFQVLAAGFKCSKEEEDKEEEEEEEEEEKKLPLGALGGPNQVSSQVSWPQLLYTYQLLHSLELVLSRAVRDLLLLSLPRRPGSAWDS
T1 sequence (O35228 19-228): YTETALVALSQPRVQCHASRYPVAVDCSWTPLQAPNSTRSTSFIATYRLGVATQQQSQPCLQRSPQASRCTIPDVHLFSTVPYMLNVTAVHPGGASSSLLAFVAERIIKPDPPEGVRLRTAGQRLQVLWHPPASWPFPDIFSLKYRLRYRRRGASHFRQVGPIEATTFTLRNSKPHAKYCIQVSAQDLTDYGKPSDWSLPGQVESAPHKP
From the text: (§1) Whole mouse spleens were harvested from C57 B1/6 mice and washed two times with 1×PBS before being plated out at 2×10^5 cells/well in assay media (RPMI 1640 plus 10% fetal bovine serum) in 96-well, round-bottom tissue culture plates. Total human PBMC (peripheral blood mononuclear cells) were thawed from a frozen vial collected from a leukapherisis donation and washed two times with 1×PBS before being plated out at 10^6 cells/well in assay media in 96-well, round-bottom tissue culture plates. […] Following pre-incubation, treatments were added to the plates containing the cells and incubated together at 37° C. for 15 minutes.
(§2) Following incubation, cells were washed with ice-cold wash buffer (BIO-PLEX Cell Lysis Kit, BIO-RAD Laboratories, Hercules, Calif.) and put on ice to stop the reaction according to manufacturer's instructions. […]
(§3) Capture beads (BIO-PLEX Phospho-Stat3 Assay, BIO-RAD Laboratories) were combined with 50 μL of 1:1 diluted lysates and added to a 96-well filter plate according to manufacture's instructions (BIO-PLEX Phosphoprotein Detection Kit, BIO-RAD Laboratories). […] After the final wash, beads were resuspended in 125 μL/well of bead suspension buffer, shaken for 30 seconds, and read on an array reader (BIO-PLEX, BIO-RAD Laboratories) according to the manufacture's instructions. Data were analyzed using analytical software (BIO-PLEX MANAGER 3.0, BIO-RAD Laboratories). […]

huIL-27 = target: T2, huIL-27 (Homo sapiens, UniProt Q14213+Q8NEV9); assay: as above; assay type: cell-based; settings: ligand huIL-27 at EC90 (2 nM)
T2 construct: purchased R&D Systems
T2 sequence (Q8NEV9 29-243): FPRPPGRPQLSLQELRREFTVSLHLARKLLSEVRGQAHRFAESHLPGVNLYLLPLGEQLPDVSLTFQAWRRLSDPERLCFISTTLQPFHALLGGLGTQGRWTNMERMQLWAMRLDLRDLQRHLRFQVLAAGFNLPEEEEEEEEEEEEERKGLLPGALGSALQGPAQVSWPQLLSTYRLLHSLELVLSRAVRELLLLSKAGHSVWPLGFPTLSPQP
T2 sequence (Q14213 21-229): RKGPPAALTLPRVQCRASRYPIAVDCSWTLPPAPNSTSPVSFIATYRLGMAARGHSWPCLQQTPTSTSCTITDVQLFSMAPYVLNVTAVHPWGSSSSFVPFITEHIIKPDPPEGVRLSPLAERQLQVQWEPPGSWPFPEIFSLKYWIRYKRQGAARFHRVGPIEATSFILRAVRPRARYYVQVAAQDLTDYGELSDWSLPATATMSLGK
From the text: as §1, §2, §3

IC50 (muIL-27): 2.97 nM | IC50 (huIL-27): 0.95 nM
Substance: human IL-27RA-Fc5: Extracellular domain of human IL27RA (amino acids 1 to 512 of SEQ ID NO:3) fused to Fc5, effector minus human gamma1 Fc; SEQ ID NO:16

Source: patent US20100093076A1, “SOLUBLE IL-27 RECEPTOR” (priority 2006, published 2010)
